In the RNAGym collection of RNA variant scans (doi:10.7554/elife.80360) one finds self-cleavage data, which are given here for 57 variants.

B1: Hammerhead Ribozyme (parent)
chain: ACCGGAUGUGCUUUCCGGUCUGAUGAGUCCGUGAGGACGAAACAG

In the data set the parent is B1. In words: self-cleavage, relative activity (ratio to wild type); higher = more cleavage; co-transcriptional.
AGCGGAUGUGCUUUCCGGUCUGAUGAGUCCGUGAAGACGAAACAG [C2G G35A]: the self-cleavage was determined as 0.271.

As for AGCGGAUGUGCUUUCCGGUCUGAUGAGUCCGUGAUGACGAAACAG [C2G G35U], the self-cleavage is 0.272.

AGCGGAUGUGCUUUCCGGUCUGAUGAGUCCGUGACGACGAAACAG [C2G G35C]: the self-cleavage was 0.339.

Turning to AGCGGAUGUGCUUUCCGGGCUGAUGAGUCCGUGAGGACGAAACAG [C2G U19G], the self-cleavage amounted to 0.275.

Regarding AGCGGAUGUGCUUUCCGGCCUGAUGAGUCCGUGAGGACGAAACAG [C2G U19C], the self-cleavage was determined as 0.308.

As for AGCGGAUGUGCUUUCCGGACUGAUGAGUCCGUGAGGACGAAACAG [C2G U19A], the self-cleavage was 0.294.

For AGCGGAUGUGCUUUCCGGUCUGAUGAGUCCGCGAGGACGAAACAG [C2G U32C], the self-cleavage came to 0.332.

Consider AGCGGAUGUGCUUUCCGGUCUGAUGAGUCCGAGAGGACGAAACAG [C2G U32A], for which the self-cleavage is 0.418.

Take AGCGGAUGUGCUUUCCGGUCUGAUGAGUCCGGGAGGACGAAACAG [C2G U32G]: the self-cleavage was 0.379.

Turning to AGCGGAUGUGCGUUCCGGUCUGAUGAGUCCGUGAGGACGAAACAG [C2G U12G], the self-cleavage came out at 0.31.

Consider AGCGGAUGUGCCUUCCGGUCUGAUGAGUCCGUGAGGACGAAACAG [C2G U12C], for which the self-cleavage amounted to 0.342.

For the variant AGCGGAUGUGCAUUCCGGUCUGAUGAGUCCGUGAGGACGAAACAG [C2G U12A], the self-cleavage worked out at 0.335.

As to AUCGGUUGUGCUUUCCGGUCUGAUGAGUCCGUGAGGACGAAACAG [C2U A6U], the self-cleavage was 0.865.

For AUCGGGUGUGCUUUCCGGUCUGAUGAGUCCGUGAGGACGAAACAG [C2U A6G], the self-cleavage amounted to 0.927.

With AUCGGCUGUGCUUUCCGGUCUGAUGAGUCCGUGAGGACGAAACAG [C2U A6C], the self-cleavage was 0.429.

Regarding AUCGGAUGUGCUUUCCGGUCUGAUGAGUCCGUGAGGACGAAACAG [C2U], the self-cleavage is 1.17.

For AUCGGAUGUGCUUUCCGGUCUGGUGAGUCCGUGAGGACGAAACAG [C2U A23G], the self-cleavage is 0.385.

Regarding AUCGGAUGUGCUUUCCGGUCUGCUGAGUCCGUGAGGACGAAACAG [C2U A23C], the self-cleavage came to 0.558.

For the variant AUCGGAUGUGCUUUCCGGUCUGUUGAGUCCGUGAGGACGAAACAG [C2U A23U], the self-cleavage stood at 0.415.

Turning to AGCGGAUGUGCUUUCCGGUCAGAUGAGUCCGUGAGGACGAAACAG [C2G U21A], the self-cleavage came to 0.314.

Turning to AGCGGAUGUGCUUUCCGGUCGGAUGAGUCCGUGAGGACGAAACAG [C2G U21G], the self-cleavage stood at 0.331.

As to AGCGGAUGUGCUUUCCGGUCCGAUGAGUCCGUGAGGACGAAACAG [C2G U21C], the self-cleavage came to 0.329.

As for AUCGGAUGUGCUUUCCGGUCUGAUGAGUCCGUGGGGACGAAACAG [C2U A34G], the self-cleavage was 0.841.

AUCGGAUGUGCUUUCCGGUCUGAUGAGUCCGUGUGGACGAAACAG [C2U A34U]: the self-cleavage is 0.972.

For AUCGGAUGUGCUUUCCGGUCUGAUGAGUCCGUGCGGACGAAACAG [C2U A34C], the self-cleavage turned out to be 0.933.

Regarding AGCGGAAGUGCUUUCCGGUCUGAUGAGUCCGUGAGGACGAAACAG [C2G U7A], the self-cleavage worked out at 0.364.

As to AGCGGACGUGCUUUCCGGUCUGAUGAGUCCGUGAGGACGAAACAG [C2G U7C], the self-cleavage stood at 0.373.

As for AGCGGAGGUGCUUUCCGGUCUGAUGAGUCCGUGAGGACGAAACAG [C2G U7G], the self-cleavage was determined as 0.364.

Regarding AUCGGAUGUGCUUUCCGGUCUGAUGAGUCCGUGAGGCCGAAACAG [C2U A37C], the self-cleavage stood at 0.782.

Turning to AUCGGAUGUGCUUUCCGGUCUGAUGAGUCCGUGAGGGCGAAACAG [C2U A37G], the self-cleavage stood at 1.01.

On to AGCGGAUGUGCUUUCCGGUCUGAUGAGUCCGUGAGGACCAAACAG [C2G G39C], for which the self-cleavage was found to be 0.289.

In the case of AGCGGAUGUGCUUUCCGGUCUGAUGAGUCCGUGAGGACAAAACAG [C2G G39A], the self-cleavage came to 0.342.

For AGCGGAUGUGCUUUCCGGUCUGAUGAGUCCGUGAGGACUAAACAG [C2G G39U], the self-cleavage is 0.268.

Take AGCGGAUGUGCUUUCCGGUCUGAUGAGACCGUGAGGACGAAACAG [C2G U28A]: the self-cleavage came to 0.37.

In the case of AGCGGAUGUGCUUUCCGGUCUGAUGAGCCCGUGAGGACGAAACAG [C2G U28C], the self-cleavage stood at 0.262.

For AGCGGAUGUGCUUUCCGGUCUGAUGAGGCCGUGAGGACGAAACAG [C2G U28G], the self-cleavage worked out at 0.315.

For the variant AGCGGAUGUGCUGUCCGGUCUGAUGAGUCCGUGAGGACGAAACAG [C2G U13G], the self-cleavage was determined as 0.332.

Consider AGCGGAUGUGCUAUCCGGUCUGAUGAGUCCGUGAGGACGAAACAG [C2G U13A], for which the self-cleavage is 0.353.

In the case of AGCGGAUGUGCUCUCCGGUCUGAUGAGUCCGUGAGGACGAAACAG [C2G U13C], the self-cleavage stood at 0.4.

Regarding AGCGGAUGUGCUUUCCGGUCUGAGGAGUCCGUGAGGACGAAACAG [C2G U24G], the self-cleavage came out at 0.356.

Consider AGCGGAUGUGCUUUCCGGUCUGAAGAGUCCGUGAGGACGAAACAG [C2G U24A], for which the self-cleavage came out at 0.476.

In the case of AGCGGAUGUGCUUUCCGGUCUGACGAGUCCGUGAGGACGAAACAG [C2G U24C], the self-cleavage was determined as 0.383.

For the variant AGCGGAUGUGCUUUCCGGUCUGAUGAGUCCGUGAGCACGAAACAG [C2G G36C], the self-cleavage was 0.336.

Take AGCGGAUGUGCUUUCCGGUCUGAUGAGUCCGUGAGAACGAAACAG [C2G G36A]: the self-cleavage was 0.3.

Take AGCGGAUGUGCUUUCCGGUCUGAUGAGUCCGUGAGUACGAAACAG [C2G G36U]: the self-cleavage was found to be 0.325.

Regarding AUCGGAUGUGCUUUCCGGUCUGAUGCGUCCGUGAGGACGAAACAG [C2U A26C], the self-cleavage is 0.514.

With AUCGGAUGUGCUUUCCGGUCUGAUGUGUCCGUGAGGACGAAACAG [C2U A26U], the self-cleavage amounted to 0.89.

For AUCGGAUGUGCUUUCCGGUCUGAUGGGUCCGUGAGGACGAAACAG [C2U A26G], the self-cleavage was 0.34.

As for AGCGGAUGUGCUUCCCGGUCUGAUGAGUCCGUGAGGACGAAACAG [C2G U14C], the self-cleavage was 0.317.

Take AGCGGAUGUGCUUACCGGUCUGAUGAGUCCGUGAGGACGAAACAG [C2G U14A]: the self-cleavage came out at 0.314.

With AGCGGAUGUGCUUGCCGGUCUGAUGAGUCCGUGAGGACGAAACAG [C2G U14G], the self-cleavage was 0.309.

Regarding AGCGGAUGUGCUUUCCGGUCUGAUGAGUCCGUGAGGACGAAACAA [C2G G45A], the self-cleavage worked out at 0.349.

For AGCGGAUGUGCUUUCCGGUCUGAUGAGUCCGUGAGGACGAAACAU [C2G G45U], the self-cleavage stood at 0.335.

As to AGCGGAUGUGCUUUCCGGUCUGAUGAGUCCGUGAGGACGAAACAC [C2G G45C], the self-cleavage was determined as 0.331.

For AGCGGAUGCGCUUUCCGGUCUGAUGAGUCCGUGAGGACGAAACAG [C2G U9C], the self-cleavage was 0.357.

AGCGGAUGGGCUUUCCGGUCUGAUGAGUCCGUGAGGACGAAACAG [C2G U9G]: the self-cleavage was 0.32.

With AGCGGAUGAGCUUUCCGGUCUGAUGAGUCCGUGAGGACGAAACAG [C2G U9A], the self-cleavage stood at 0.367.
